Where two headings read alike, the source gives them in different places. Bridge positions count the residues as written; N and C are the ends. Peptide text beside a SMILES is read from it. * marks the point of attachment. DOTA = O=C(O)CN1CCN(CC(=O)O)CCN(CC(=O)*)CCN(CC(=O)O)CC1
Tests used:
[1] = In vivo biodistribution in T47D tumor bearing SCID mice; conditions: female, ICR SCID, mouse, iv, total radioactivity, n = 4; for tissue uptake at 1 h / dose excreted at 1 h: 1 hour post-injection; for tissue uptake at 24 h / dose excreted at 24 h: 24 hours post-injection
Description: (§1) In vivo iodistribution studies. Four- to 5-week old female ICR SCID ([…]) outbred mice were obtained from Taconic (Germantown, N.Y.). The mice were housed five animals per cage in sterile micro isolator cages in a temperature- and humidity-controlled room with a 12-hour light/12-hour dark schedule. The animals were fed autoclaved rodent chow (Ralston Purina Company, St. Louis, Mo.) and water ad libitum. Animals were housed one week prior to inoculation of tumor cells and anesthetized for injections with isoflurane (Baxter Healthcare Corp., Deerfield, Ill.) at a rate of 2.5% with 0.4L oxygen through a non-rebreathing anesthesia vaporizer.
(§2) Human breast cancer MB231 and T47D cells were injected on the bilateral subcutaneous (s.c.) flank with ˜5×10^6 cells in a suspension of 100 μl normal sterile saline per injection site. MB231 and T47D cells were allowed to grow in vivo two to three weeks post inoculation developing tumors ranging in sizes from 0.02-1.30 grams. The biodistribution and uptake of ^111In-DOTA-Phe^19-STh or ^111In-DOTA-6-Ahx-Phe^19-STh in tumor bearing SCID mice was studied. The mice (average weight, 25 g) were injected with aliquots (50-100 μl) of the radiolabeled peptide solution (55-75 kBq) in each animal via the tail vein. Tissues, organs and tumors were excised from the animals sacrificed at 1 hr, 4 hrs and 24 hrs p.i. For blocking studies, an access of non-radioactive 6-Ahx-Phe^19-STh (100 μg) was also injected along with the radiolabeled peptide solution. The radioactivity was measured in a NaI counter and the percent-injected dose per organ and the percent-injected dose per gram tissue were calculated (Tables 5 and 6). Animal studies were conducted in accordance with the highest standards of care as outlined in the NIH guide for Care and Use of Laboratory Animals and the Policy and Procedures for Animal Research at the Harry S. Truman Memorial VA Hospital and according to approved protocols.

[2] = tested on: T47D tumor bearing SCID mice; experiment: as above; conditions: 4 hours post-injection, n = 4
Description: as §1, §2

[3] = T47D tumor, T47D tumor, read-out: biodistribution, Tumor
[4] = blood, read-out: biodistribution, Blood
[5] = heart, read-out: biodistribution, Heart
[6] = kidney, read-out: biodistribution, Kidney
[7] = large intestine, read-out: biodistribution, Large Intestine
[8] = liver, read-out: biodistribution, Liver
[9] = lung, read-out: biodistribution, Lung
[10] = muscle, read-out: biodistribution, Muscle
[11] = pancreas, read-out: biodistribution, Pancreas
[12] = small intestine, read-out: biodistribution, Small Intestine
[13] = spleen, read-out: biodistribution, Spleen
[14] = stomach, read-out: biodistribution, Stomach
[15] = urine, read-out: biodistribution, Urine (Avg % ID)

**Q.** Which tissue uptake at 1 h ([1]; T47D tumor, T47D tumor, Blocking (100 μg non-radioactive 6-Ahx-Phe^19-STh co-injected), read-out: biodistribution, Tumor) does the source give for `CC(C)C[C@@H]1NC(=O)[C@H](CCC(=O)O)NC(=O)[C@@H]2CSSC[C@@H]3NC(=O)[C@H](C)NC(=O)[C@@H]4CCCN4C(=O)[C@H](CC(N)=O)NC(=O)[C@H](CSSC[C@H](NC(=O)[C@H](Cc4ccc(O)cc4)NC(=O)[C@H](CC(N)=O)NC(=O)[C@H](CO)NC(=O)[C@H](CO)NC(=O)[C@H](CC(N)=O)NC(=O)CN4CCN(CC(=O)O)CCN(CC(=O)O)CCN(CC(=O)O)CC4)C(=O)N2)NC(=O)[C@H](CSSC[C@@H](C(=O)N[C@@H](Cc2ccccc2)C(=O)O)NC(=O)CNC(=O)[C@H]([C@@H](C)O)NC3=O)NC1=O` [^111In-DOTA-Phe^19-STh, metal not drawn] ({DOTA}-NSSNYCCELCCNPACTGCF-OH; disulfide 6-11, 7-15, 10-18) here?
**A.** 0.43 ± 0.2 %ID/g

**Q.** What about the tissue uptake at 1 h [1, 3] of the same molecule?
**A.** 0.67 ± 0.23 %ID/g

**Q.** And the tissue uptake at 4 h ([1]; T47D tumor, T47D tumor, 4 hours post-injection, read-out: biodistribution, Tumor)?
**A.** 0.17 ± 0.16 %ID/g

**Q.** What about the tissue uptake at 24 h [1, 3] of the same molecule?
**A.** 0.14 ± 0.12 %ID/g

**Q.** And the tissue uptake at 1 h ([1]; blood, Blocking (100 μg non-radioactive 6-Ahx-Phe^19-STh co-injected), read-out: biodistribution, Blood)?
**A.** 0.57 ± 0.19 %ID/g

**Q.** And the tissue uptake at 1 h [1, 4]?
**A.** 0.82 ± 0.34 %ID/g

**Q.** And the tissue uptake at 4 h ([1]; blood, 4 hours post-injection, read-out: biodistribution, Blood)?
**A.** 0.01 ± 0.01 %ID/g

**Q.** And the tissue uptake at 24 h [1, 4]?
**A.** 0.02 ± 0.01 %ID/g

**Q.** What about the dose excreted at 24 h ([1]; faeces, read-out: biodistribution, Feces (Avg % ID)) of the same molecule?
**A.** 1.4 ± 0.7%

**Q.** And the tissue uptake at 1 h ([1]; heart, Blocking (100 μg non-radioactive 6-Ahx-Phe^19-STh co-injected), read-out: biodistribution, Heart)?
**A.** 0.13 ± 0.1 %ID/g

**Q.** And the tissue uptake at 1 h [1, 5]?
**A.** 0.15 ± 0.11 %ID/g

**Q.** What about the tissue uptake at 24 h [1, 5] of the same molecule?
**A.** 0.08 ± 0.08 %ID/g

**Q.** And the tissue uptake at 1 h ([1]; kidney, Blocking (100 μg non-radioactive 6-Ahx-Phe^19-STh co-injected), read-out: biodistribution, Kidney)?
**A.** 5.88 ± 1.47 %ID/g

**Q.** And the tissue uptake at 1 h [1, 6]?
**A.** 4.7 ± 1.4 %ID/g

**Q.** What about the tissue uptake at 4 h ([1]; kidney, 4 hours post-injection, read-out: biodistribution, Kidney) of the same molecule?
**A.** 2.02 ± 0.35 %ID/g

**Q.** What about the tissue uptake at 24 h [1, 6] of the same molecule?
**A.** 1.04 ± 0.33 %ID/g

**Q.** And the tissue uptake at 1 h ([1]; large intestine, Blocking (100 μg non-radioactive 6-Ahx-Phe^19-STh co-injected), read-out: biodistribution, Large Intestine)?
**A.** 0.17 ± 0.06 %ID/g

**Q.** What about the tissue uptake at 1 h [1, 7] of the same molecule?
**A.** 0.57 ± 0.21 %ID/g

**Q.** And the tissue uptake at 4 h ([1]; large intestine, 4 hours post-injection, read-out: biodistribution, Large Intestine)?
**A.** 1.74 ± 1.04 %ID/g

**Q.** And the tissue uptake at 24 h [1, 7]?
**A.** 0.1 ± 0.03 %ID/g

**Q.** And the tissue uptake at 1 h ([1]; liver, Blocking (100 μg non-radioactive 6-Ahx-Phe^19-STh co-injected), read-out: biodistribution, Liver)?
**A.** 0.19 ± 0.04 %ID/g

**Q.** What about the tissue uptake at 1 h [1, 8] of the same molecule?
**A.** 0.26 ± 0.12 %ID/g

**Q.** What about the tissue uptake at 4 h ([1]; liver, 4 hours post-injection, read-out: biodistribution, Liver) of the same molecule?
**A.** 0.06 ± 0.01 %ID/g

**Q.** What about the tissue uptake at 24 h [1, 8] of the same molecule?
**A.** 0.03 ± 0.01 %ID/g

**Q.** What about the tissue uptake at 1 h ([1]; lung, Blocking (100 μg non-radioactive 6-Ahx-Phe^19-STh co-injected), read-out: biodistribution, Lung) of the same molecule?
**A.** 0.45 ± 0.16 %ID/g

**Q.** What about the tissue uptake at 1 h [1, 9] of the same molecule?
**A.** 0.56 ± 0.19 %ID/g

**Q.** And the tissue uptake at 4 h ([1]; lung, 4 hours post-injection, read-out: biodistribution, Lung)?
**A.** 0.09 ± 0.06 %ID/g

**Q.** What about the tissue uptake at 24 h [1, 9] of the same molecule?
**A.** 0.06 ± 0.03 %ID/g

**Q.** And the tissue uptake at 1 h ([1]; muscle, Blocking (100 μg non-radioactive 6-Ahx-Phe^19-STh co-injected), read-out: biodistribution, Muscle)?
**A.** 0.18 ± 0.08 %ID/g

**Q.** And the tissue uptake at 1 h [1, 10]?
**A.** 0.19 ± 0.08 %ID/g

**Q.** And the tissue uptake at 4 h ([1]; muscle, 4 hours post-injection, read-out: biodistribution, Muscle)?
**A.** 0.06 ± 0.04 %ID/g

**Q.** What about the tissue uptake at 24 h [1, 10] of the same molecule?
**A.** 0.04 ± 0.03 %ID/g

**Q.** What about the tissue uptake at 1 h ([1]; pancreas, Blocking (100 μg non-radioactive 6-Ahx-Phe^19-STh co-injected), read-out: biodistribution, Pancreas) of the same molecule?
**A.** 0.16 ± 0.07 %ID/g

**Q.** What about the tissue uptake at 1 h [1, 11] of the same molecule?
**A.** 0.21 ± 0.09 %ID/g

**Q.** And the tissue uptake at 4 h ([1]; pancreas, 4 hours post-injection, read-out: biodistribution, Pancreas)?
**A.** 0.04 ± 0.05 %ID/g

**Q.** What about the tissue uptake at 24 h [1, 11] of the same molecule?
**A.** 0.02 ± 0.03 %ID/g

**Q.** And the tissue uptake at 1 h ([1]; small intestine, Blocking (100 μg non-radioactive 6-Ahx-Phe^19-STh co-injected), read-out: biodistribution, Small Intestine)?
**A.** 0.25 ± 0.1 %ID/g

**Q.** And the tissue uptake at 1 h [1, 12]?
**A.** 1.37 ± 0.55 %ID/g

**Q.** What about the tissue uptake at 4 h ([1]; small intestine, 4 hours post-injection, read-out: biodistribution, Small Intestine) of the same molecule?
**A.** 0.44 ± 0.07 %ID/g

**Q.** And the tissue uptake at 24 h [1, 12]?
**A.** 0.09 ± 0.02 %ID/g

**Q.** What about the tissue uptake at 1 h ([1]; spleen, Blocking (100 μg non-radioactive 6-Ahx-Phe^19-STh co-injected), read-out: biodistribution, Spleen) of the same molecule?
**A.** 0.12 ± 0.07 %ID/g

**Q.** And the tissue uptake at 1 h [1, 13]?
**A.** 0.19 ± 0.16 %ID/g

**Q.** What about the tissue uptake at 4 h ([1]; spleen, 4 hours post-injection, read-out: biodistribution, Spleen) of the same molecule?
**A.** 0.13 ± 0.15 %ID/g

**Q.** And the tissue uptake at 24 h [1, 13]?
**A.** 0.12 ± 0.08 %ID/g

**Q.** What about the tissue uptake at 1 h ([1]; stomach, Blocking (100 μg non-radioactive 6-Ahx-Phe^19-STh co-injected), read-out: biodistribution, Stomach) of the same molecule?
**A.** 0.61 ± 0.64 %ID/g

**Q.** What about the tissue uptake at 1 h [1, 14] of the same molecule?
**A.** 0.53 ± 0.47 %ID/g

**Q.** What about the tissue uptake at 4 h ([1]; stomach, 4 hours post-injection, read-out: biodistribution, Stomach) of the same molecule?
**A.** 0.17 ± 0.06 %ID/g

**Q.** What about the tissue uptake at 24 h [1, 14] of the same molecule?
**A.** 0.02 ± 0.01 %ID/g

**Q.** And the dose excreted at 1 h ([1]; urine, Blocking (100 μg non-radioactive 6-Ahx-Phe^19-STh co-injected), read-out: biodistribution, Urine (Avg % ID))?
**A.** 93.1 ± 1.5%

**Q.** What about the dose excreted at 1 h [1, 15] of the same molecule?
**A.** 86.4 ± 5%

**Q.** And the dose excreted at 4 h ([1]; urine, 4 hours post-injection, read-out: biodistribution, Urine (Avg % ID))?
**A.** 96.1 ± 1%

**Q.** What about the dose excreted at 24 h [1, 15] of the same molecule?
**A.** 97.8 ± 0.7%

**Q.** And the “biodistribution, Heart” value [2]?
**A.** 0.00 ± 0.00 % ID/gm

Reference: patent US20030232013A1, “Therapeutic and diagnostic targeting of cancers cells with tumor homing peptides” (priority 2002, published 2003)
